Source: paper PMC4759549

What was measured:
[1] = biological target: STY3178, a yfdX protein from Salmonella Typhi (Salmonella Typhi (CT18)); assay: SEC
[2] = biological target: STY3178, a yfdX protein from Salmonella Typhi (Salmonella Typhi (CT18)); assay: NMR relaxation (1D 1H-15N T1 and T2, rotational correlation time)

STY3178, a yfdX protein from Salmonella Typhi (natural protein)
stoichiometry N [1]: 3 | stoichiometry N [2]: 3
